Results taken from PMC6231325.

Biological target: GFP_CaV2.2-HA (rabbit) (UniProt Q05152)
Assay: co-IP; competition: tsA-201 cells transfected with GFP_CaV2.2-HA, β1b, α2δ-1 and (TASK3, Cachd1 or a 1:1 mix of both) in a ratio of 2:1:2:1; IP with anti-GFP Ab, 300 mM NaCl, digitonin; α2δ-1 in IP/input normalised to no Cachd1

UniProt Q05152, sequence (Q05152 whole entry): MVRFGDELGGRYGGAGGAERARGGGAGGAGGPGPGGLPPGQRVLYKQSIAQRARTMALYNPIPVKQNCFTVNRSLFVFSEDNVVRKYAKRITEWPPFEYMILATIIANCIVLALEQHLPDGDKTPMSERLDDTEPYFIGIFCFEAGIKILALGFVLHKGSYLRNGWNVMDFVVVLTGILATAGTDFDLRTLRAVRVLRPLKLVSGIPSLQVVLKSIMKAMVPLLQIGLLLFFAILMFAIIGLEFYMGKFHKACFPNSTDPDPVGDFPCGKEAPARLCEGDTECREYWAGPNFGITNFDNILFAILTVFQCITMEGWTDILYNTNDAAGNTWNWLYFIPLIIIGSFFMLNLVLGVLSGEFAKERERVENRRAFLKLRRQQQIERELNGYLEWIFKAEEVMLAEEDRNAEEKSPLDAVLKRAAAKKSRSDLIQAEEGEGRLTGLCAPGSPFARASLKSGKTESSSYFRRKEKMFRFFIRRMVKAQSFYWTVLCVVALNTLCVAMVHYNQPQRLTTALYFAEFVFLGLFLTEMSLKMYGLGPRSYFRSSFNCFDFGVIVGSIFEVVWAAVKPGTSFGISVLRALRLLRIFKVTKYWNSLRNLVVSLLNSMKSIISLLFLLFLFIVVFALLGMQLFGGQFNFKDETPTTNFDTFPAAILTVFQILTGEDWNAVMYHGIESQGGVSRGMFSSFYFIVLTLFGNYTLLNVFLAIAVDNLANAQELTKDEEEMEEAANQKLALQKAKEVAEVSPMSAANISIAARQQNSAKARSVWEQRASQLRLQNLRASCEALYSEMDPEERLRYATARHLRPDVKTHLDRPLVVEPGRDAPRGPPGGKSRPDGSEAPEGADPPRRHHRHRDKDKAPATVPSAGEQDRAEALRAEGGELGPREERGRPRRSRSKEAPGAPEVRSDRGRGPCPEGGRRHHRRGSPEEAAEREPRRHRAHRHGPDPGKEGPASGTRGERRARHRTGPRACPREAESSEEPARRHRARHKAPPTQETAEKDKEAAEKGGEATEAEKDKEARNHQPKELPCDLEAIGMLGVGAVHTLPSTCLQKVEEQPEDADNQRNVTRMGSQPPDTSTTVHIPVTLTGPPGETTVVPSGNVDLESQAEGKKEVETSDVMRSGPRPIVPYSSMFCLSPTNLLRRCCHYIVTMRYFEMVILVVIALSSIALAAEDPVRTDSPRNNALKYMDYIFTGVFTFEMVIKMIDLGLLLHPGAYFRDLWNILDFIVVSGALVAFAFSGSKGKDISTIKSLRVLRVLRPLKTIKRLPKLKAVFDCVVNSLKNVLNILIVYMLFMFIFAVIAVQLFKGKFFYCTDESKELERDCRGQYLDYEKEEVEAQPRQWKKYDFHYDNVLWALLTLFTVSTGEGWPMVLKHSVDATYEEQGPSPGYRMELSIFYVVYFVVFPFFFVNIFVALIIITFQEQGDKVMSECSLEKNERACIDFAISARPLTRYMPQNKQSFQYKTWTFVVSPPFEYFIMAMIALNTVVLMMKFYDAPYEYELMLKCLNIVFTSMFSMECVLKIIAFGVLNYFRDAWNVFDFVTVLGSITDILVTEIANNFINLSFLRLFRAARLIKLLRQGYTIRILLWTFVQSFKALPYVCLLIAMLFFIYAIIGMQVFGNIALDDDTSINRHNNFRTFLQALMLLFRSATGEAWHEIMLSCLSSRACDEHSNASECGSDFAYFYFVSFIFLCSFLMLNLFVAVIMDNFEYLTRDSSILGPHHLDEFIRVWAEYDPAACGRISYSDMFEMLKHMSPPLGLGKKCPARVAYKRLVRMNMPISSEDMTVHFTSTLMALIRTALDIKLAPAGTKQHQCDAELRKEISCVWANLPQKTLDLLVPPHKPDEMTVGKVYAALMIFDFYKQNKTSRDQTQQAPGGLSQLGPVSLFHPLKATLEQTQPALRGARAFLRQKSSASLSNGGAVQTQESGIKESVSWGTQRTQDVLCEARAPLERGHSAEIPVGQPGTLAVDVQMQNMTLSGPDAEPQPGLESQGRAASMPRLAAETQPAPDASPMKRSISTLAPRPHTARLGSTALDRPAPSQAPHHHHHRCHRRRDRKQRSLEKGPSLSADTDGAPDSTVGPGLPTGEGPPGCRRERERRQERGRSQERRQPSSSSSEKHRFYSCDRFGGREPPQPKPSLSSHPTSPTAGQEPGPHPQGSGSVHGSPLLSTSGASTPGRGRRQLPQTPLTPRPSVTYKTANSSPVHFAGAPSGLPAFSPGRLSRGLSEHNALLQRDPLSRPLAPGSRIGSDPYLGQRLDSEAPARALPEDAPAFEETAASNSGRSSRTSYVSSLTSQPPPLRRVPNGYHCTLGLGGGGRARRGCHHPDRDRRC

Work on Cachd1 (natural protein) yielded a percent reduction of the coIP of α2δ-1 with GFP CaV2.2 (1× Cachd1) of 71%.
